Results from paper PMC5324060, “Evolutionary, computational, and biochemical studies of the salicylaldehyde dehydrogenases in the naphthalene degradation pathway” (Scientific Reports, 2017).
Where two headings read alike, the source gives them in different places.

Columns and labels:
SALDan V153A = molecular target: T1, SALDan V153A (Alteromonas naphthalenivorans, UniProt F5Z5S7, V153A); assay: Kinetics assay of SALDan mutant V153A; type: biochemical; conditions: V153A mutant versus wild-type
T1 sequence (F5Z5S7 1-483 V153A): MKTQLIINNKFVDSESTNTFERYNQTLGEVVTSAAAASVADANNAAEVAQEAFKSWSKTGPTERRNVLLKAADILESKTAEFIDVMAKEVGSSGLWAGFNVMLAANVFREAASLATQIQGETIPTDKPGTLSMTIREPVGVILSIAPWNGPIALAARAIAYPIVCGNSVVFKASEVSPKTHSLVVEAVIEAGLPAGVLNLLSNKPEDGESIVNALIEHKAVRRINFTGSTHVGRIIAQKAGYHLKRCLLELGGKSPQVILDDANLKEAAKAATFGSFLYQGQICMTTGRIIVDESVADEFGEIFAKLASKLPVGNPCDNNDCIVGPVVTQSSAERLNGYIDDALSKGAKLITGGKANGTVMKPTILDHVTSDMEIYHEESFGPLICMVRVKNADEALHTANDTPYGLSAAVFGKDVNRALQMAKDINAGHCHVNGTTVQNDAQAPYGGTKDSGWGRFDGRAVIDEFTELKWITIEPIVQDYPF
Source text: (§1) The primers used for the single amino acid mutant were as follows: N149A, forward primer, 5′-ATAGCACCGTGGGCCGGGCCTATTGTATTA-3′; reverse primer, 5′-TAATACAATAGGCCCGGCCCACGGTGCTAT-3′; V153A, forward primer, 5′-AATGGGCCTATTGTATTAGCGGCTCGG-3′; reverse primer, 5′-CCGAGCCGCTAATACAATAGGCCCATT-3′; E175A, forward primer, 5′-[…]-3′, reverse primer, 5′-GTTGGGACAGTCTTCCAGCCC-3′; E175A, forward primer, 5′-ATGCTCCACCAAATTGGGCAC-3′; reverse primer, 5′-TTTAGGACTTACTTCTGAAGCTTTAAA-3′. The PCR was performed using Pfu polymerase, and the cycling parameters were: 95 °C for 5 min (one cycle), 95 °C for 30 s, and 68 °C for 12 min (12 cycles). After amplification, the PCR mixture was digested with DpnI and then transformed into E. coli BL21(DE3) by electroporation. The mutants were confirmed by DNA sequencing.
The activity of the purified proteins was determined using SAL as a substrate. […] The SALDan activity was monitored as the rate of appearance of NADH at 340 nm spectrophotometrically. The specific activity of the enzyme (units.mg^−1.min^−1) was expressed as the amount of enzyme required to produce 1 μM of NADH under the assay conditions. The influence of pH on the activity was determined using the protocol described above, with the exception of replacing the Tris-HCl buffer with 50 mM sodium acetate (pH 3.0–5.0), 50 mM 2-(N-morpholino)ethanesulfonic acid (pH 5.0–7.5), 50 mM HEPES (pH 8.0–8.5), 50 mM glycine (pH 9.0–10.0), or 50 mM sodium phosphate (pH 11.0)[52]. […]
(§2) For kinetic studies of aldehydes, the initial velocities of the enzymatic reactions were examined by varying the concentrations of various aromatic as well as aliphatic aldehydes in the presence of NAD^+ (100 μM) and the enzyme (0.1 μM) under optimal conditions. For substrates that absorb at 340 nm, thus interfering with the calculation of the initial rate, their molar coefficients (ε) were calculated as described previously[64] and are presented in Table S1. The apparent kinetic parameters were calculated using the equation: […]

SALDan E175A = molecular target: T2, SALDan E175A (Alteromonas naphthalenivorans, UniProt F5Z5S7, E175A); assay: Kinetics assay of SALDan mutant E175A; type: biochemical
T2 sequence (F5Z5S7 1-483 E175A): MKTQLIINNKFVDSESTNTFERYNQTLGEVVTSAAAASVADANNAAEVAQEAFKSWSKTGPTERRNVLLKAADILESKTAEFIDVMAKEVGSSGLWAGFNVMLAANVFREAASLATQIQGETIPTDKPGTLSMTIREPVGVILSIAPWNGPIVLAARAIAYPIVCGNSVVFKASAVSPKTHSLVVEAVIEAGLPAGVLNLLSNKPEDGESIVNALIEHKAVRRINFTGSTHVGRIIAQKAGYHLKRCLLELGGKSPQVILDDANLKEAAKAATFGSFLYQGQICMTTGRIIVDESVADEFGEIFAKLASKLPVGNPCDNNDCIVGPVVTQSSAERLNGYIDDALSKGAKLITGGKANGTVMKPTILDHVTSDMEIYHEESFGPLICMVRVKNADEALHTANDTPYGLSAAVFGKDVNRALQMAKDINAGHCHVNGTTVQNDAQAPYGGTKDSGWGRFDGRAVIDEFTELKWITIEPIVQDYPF
Source text: as §1
(§3) The activity of the purified proteins was determined using SAL as a substrate. A reaction volume of 500 μL was prepared in a microfuge tube containing purified SALDan (0.1 μM), SAL (100 μM), and NAD^+ (100 μM) dissolved in 50 mM HEPES (pH 7.5) containing 150 mM NaCl. The SALDan activity was monitored as the rate of appearance of NADH at 340 nm spectrophotometrically. The specific activity of the enzyme (units.mg^−1.min^−1) was expressed as the amount of enzyme required to produce 1 μM of NADH under the assay conditions. The influence of pH on the activity was determined using the protocol described above, with the exception of replacing the […] buffer with 50 mM sodium acetate (pH 3.0–5.0), 50 mM 2-(N-morpholino)ethanesulfonic acid (pH 5.0–7.5), 50 mM HEPES (pH 8.0–8.5), 50 mM glycine (pH 9.0–10.0), or 50 mM sodium phosphate (pH 11.0)[52]. All assays were performed at the optimal temperature. To determine the influence of temperature on the enzymatic activity, the reactions were performed at 15, 20, 25, 30, 35, 40, and 45 °C, respectively.
as §2
(§4) The apparent kinetic parameters for NAD^+ were determined at a fixed concentration of SAL (50 μM) and a varying concentration of NAD^+ (0–500 μM). The apparent Km and Vmax values were calculated by using the equation: […]
(§5) All the activity data were determined by three separate experiments with at least three technical replicates.

SALDan = SALDan (Alteromonas naphthalenivorans, UniProt F5Z5S7); assay: Kinetics assay of wild-type recombinant SALDan (NADH appearance at 340 nm); type: biochemical
Sequence of SALDan (F5Z5S7 entry or part of it): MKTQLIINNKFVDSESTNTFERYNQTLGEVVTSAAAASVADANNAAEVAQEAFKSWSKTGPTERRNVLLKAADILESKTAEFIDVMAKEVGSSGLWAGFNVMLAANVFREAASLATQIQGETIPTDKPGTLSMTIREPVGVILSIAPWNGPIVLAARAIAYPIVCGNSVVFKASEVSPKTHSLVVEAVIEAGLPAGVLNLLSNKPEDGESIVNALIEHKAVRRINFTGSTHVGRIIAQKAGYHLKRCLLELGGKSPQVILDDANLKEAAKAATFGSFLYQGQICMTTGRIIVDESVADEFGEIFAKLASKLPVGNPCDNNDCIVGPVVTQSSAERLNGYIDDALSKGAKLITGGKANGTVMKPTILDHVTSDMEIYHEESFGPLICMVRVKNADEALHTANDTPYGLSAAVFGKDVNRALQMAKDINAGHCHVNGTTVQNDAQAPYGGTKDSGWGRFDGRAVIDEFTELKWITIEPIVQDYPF
Experimental: as §3, §2, §4, §5

[1] = substrate: O=Cc1ccccc1O; assay: Kinetics assay of SALDan mutant E175A; type: biochemical, Alteromonas naphthalenivorans; conditions: other: E175A mutant; SAL varied at NAD^+ 100 μM; NAD^+ varied at SAL 50 μM
Source text: as §1, §3, §2, §4, §5

[2] = substrate: NC(=O)c1ccc[n+]([C@@H]2O[C@H](COP(=O)([O-])OP(=O)(O)OC[C@H]3O[C@@H](n4cnc5c(N)ncnc54)[C@H](O)[C@@H]3O)[C@@H](O)[C@H]2O)c1; assay: Kinetics assay of SALDan mutant E175A; type: biochemical, Alteromonas naphthalenivorans; conditions: other: E175A mutant; SAL varied at NAD^+ 100 μM; NAD^+ varied at SAL 50 μM
Source text: as §1, §3, §2, §4, §5

[3] = substrate: O=Cc1ccccc1O; assay: Kinetics assay of SALDan mutant N149A; type: biochemical, Alteromonas naphthalenivorans; conditions: other: N149A mutant; SAL varied at NAD^+ 100 μM; NAD^+ varied at SAL 50 μM
Source text: as §1, §3, §2, §4, §5

[4] = substrate: NC(=O)c1ccc[n+]([C@@H]2O[C@H](COP(=O)([O-])OP(=O)(O)OC[C@H]3O[C@@H](n4cnc5c(N)ncnc54)[C@H](O)[C@@H]3O)[C@@H](O)[C@H]2O)c1; assay: Kinetics assay of SALDan mutant N149A; type: biochemical, Alteromonas naphthalenivorans; conditions: other: N149A mutant; SAL varied at NAD^+ 100 μM; NAD^+ varied at SAL 50 μM
Source text: as §1, §3, §2, §4, §5

[5] = substrate: O=Cc1ccccc1O; assay: Kinetics assay of SALDan mutant V153A; type: biochemical, Alteromonas naphthalenivorans; conditions: other: V153A mutant; SAL varied at NAD^+ 100 μM; NAD^+ varied at SAL 50 μM
Source text: as §1, §3, §2, §4, §5

[6] = substrate: NC(=O)c1ccc[n+]([C@@H]2O[C@H](COP(=O)([O-])OP(=O)(O)OC[C@H]3O[C@@H](n4cnc5c(N)ncnc54)[C@H](O)[C@@H]3O)[C@@H](O)[C@H]2O)c1; assay: Kinetics assay of SALDan mutant V153A; type: biochemical, Alteromonas naphthalenivorans; conditions: other: V153A mutant; SAL varied at NAD^+ 100 μM; NAD^+ varied at SAL 50 μM
Source text: as §1, §3, §2, §4, §5

NC(=O)c1ccc[n+]([C@@H]2O[C@H](COP(=O)([O-])OP(=O)(O)OC[C@H]3O[C@@H](n4cnc5c(N)ncnc54)[C@H](O)[C@@H]3O)[C@@H](O)[C@H]2O)c1 [NAD^+, nicotinamide adenine dinucleotide]
effect on the kinetic parameters (SALDan V153A): no significant effect | change of apparent Km value (SALDan E175A; E175A mutant versus wild-type): increased by about two times | change of kcat/Km (catalytic efficiency) (SALDan E175A; E175A mutant versus wild-type): decreased by four times | increase of Km (SALDan E175A; mutation of Glu175 versus wild-type (Discussion)): 5 fold

O=Cc1ccc([N+](=O)[O-])cc1 [4-Nitrobenzaldehyde]
Ki (SALDan; wild-type, “—” means not observed, read-out: App Ki (substrate inhibition)): 266 ± 35.8 µM

O=Cc1ccccc1 [Benzaldehyde]
Ki (SALDan): 563 ± 87.6 µM

B1: SALDan E175A (Alteromonas naphthalenivorans; E175A) (protein)
chain: MKTQLIINNKFVDSESTNTFERYNQTLGEVVTSAAAASVADANNAAEVAQEAFKSWSKTGPTERRNVLLKAADILESKTAEFIDVMAKEVGSSGLWAGFNVMLAANVFREAASLATQIQGETIPTDKPGTLSMTIREPVGVILSIAPWNGPIVLAARAIAYPIVCGNSVVFKASAVSPKTHSLVVEAVIEAGLPAGVLNLLSNKPEDGESIVNALIEHKAVRRINFTGSTHVGRIIAQKAGYHLKRCLLELGGKSPQVILDDANLKEAAKAATFGSFLYQGQICMTTGRIIVDESVADEFGEIFAKLASKLPVGNPCDNNDCIVGPVVTQSSAERLNGYIDDALSKGAKLITGGKANGTVMKPTILDHVTSDMEIYHEESFGPLICMVRVKNADEALHTANDTPYGLSAAVFGKDVNRALQMAKDINAGHCHVNGTTVQNDAQAPYGGTKDSGWGRFDGRAVIDEFTELKWITIEPIVQDYPF
Km [1]: 15.1 ± 2.6 µM | Vmax [1]: 32.3 µmol/min/mg | kcat [1]: 82.2 ± 10.1 s⁻¹ | kcat/Km [1]: 5.4e+06 ± 900000 M⁻¹ s⁻¹ | Km [2]: 105.6 ± 10.3 µM | Vmax [2]: 60.6 µmol/min/mg | kcat [2]: 158 ± 17.2 s⁻¹ | kcat/Km [2]: 1.5e+06 ± 400000 M⁻¹ s⁻¹

B2: SALDan N149A (Alteromonas naphthalenivorans; N149A) (protein)
chain: MKTQLIINNKFVDSESTNTFERYNQTLGEVVTSAAAASVADANNAAEVAQEAFKSWSKTGPTERRNVLLKAADILESKTAEFIDVMAKEVGSSGLWAGFNVMLAANVFREAASLATQIQGETIPTDKPGTLSMTIREPVGVILSIAPWAGPIVLAARAIAYPIVCGNSVVFKASEVSPKTHSLVVEAVIEAGLPAGVLNLLSNKPEDGESIVNALIEHKAVRRINFTGSTHVGRIIAQKAGYHLKRCLLELGGKSPQVILDDANLKEAAKAATFGSFLYQGQICMTTGRIIVDESVADEFGEIFAKLASKLPVGNPCDNNDCIVGPVVTQSSAERLNGYIDDALSKGAKLITGGKANGTVMKPTILDHVTSDMEIYHEESFGPLICMVRVKNADEALHTANDTPYGLSAAVFGKDVNRALQMAKDINAGHCHVNGTTVQNDAQAPYGGTKDSGWGRFDGRAVIDEFTELKWITIEPIVQDYPF
Km [3]: 9.5 ± 1.3 µM | Vmax [3]: 38.6 µmol/min/mg | kcat [3]: 100 ± 16.8 s⁻¹ | kcat/Km [3]: 1.06e+07 ± 1.3e+06 M⁻¹ s⁻¹ | Km [4]: 52.3 ± 6.1 µM | Vmax [4]: 83.5 µmol/min/mg | kcat [4]: 209 ± 25.6 s⁻¹ | kcat/Km [4]: 4e+06 ± 800000 M⁻¹ s⁻¹

B3: SALDan V153A (Alteromonas naphthalenivorans; V153A) (protein)
chain: MKTQLIINNKFVDSESTNTFERYNQTLGEVVTSAAAASVADANNAAEVAQEAFKSWSKTGPTERRNVLLKAADILESKTAEFIDVMAKEVGSSGLWAGFNVMLAANVFREAASLATQIQGETIPTDKPGTLSMTIREPVGVILSIAPWNGPIALAARAIAYPIVCGNSVVFKASEVSPKTHSLVVEAVIEAGLPAGVLNLLSNKPEDGESIVNALIEHKAVRRINFTGSTHVGRIIAQKAGYHLKRCLLELGGKSPQVILDDANLKEAAKAATFGSFLYQGQICMTTGRIIVDESVADEFGEIFAKLASKLPVGNPCDNNDCIVGPVVTQSSAERLNGYIDDALSKGAKLITGGKANGTVMKPTILDHVTSDMEIYHEESFGPLICMVRVKNADEALHTANDTPYGLSAAVFGKDVNRALQMAKDINAGHCHVNGTTVQNDAQAPYGGTKDSGWGRFDGRAVIDEFTELKWITIEPIVQDYPF
Km [5]: 4.6 ± 0.7 µM | Vmax [5]: 59.5 µmol/min/mg | kcat [5]: 154 ± 20.4 s⁻¹ | kcat/Km [5]: 3.34e+07 ± 4.7e+06 M⁻¹ s⁻¹ | Km [6]: 44.9 ± 4.2 µM | Vmax [6]: 103 µmol/min/mg | kcat [6]: 254 ± 21.5 s⁻¹ | kcat/Km [6]: 5.7e+06 ± 500000 M⁻¹ s⁻¹
